This is an account of results in US20250163127A1.

Read-outs that look alike come from different tables or passages of the source.

One assay addresses CTLA4 (human). In words: flow cytometry, CHO cells stably expressing CTLA4.
In assay [1] the target is CD28 (human) (UniProt P10747). In words: flow cytometry, Jurkat cells (CD28).
In assay [2] the target is PD-L1 (human). In words: flow cytometry, CHO cells stably expressing PD-L1.
Target sequence in this assay (chain, as listed by the source): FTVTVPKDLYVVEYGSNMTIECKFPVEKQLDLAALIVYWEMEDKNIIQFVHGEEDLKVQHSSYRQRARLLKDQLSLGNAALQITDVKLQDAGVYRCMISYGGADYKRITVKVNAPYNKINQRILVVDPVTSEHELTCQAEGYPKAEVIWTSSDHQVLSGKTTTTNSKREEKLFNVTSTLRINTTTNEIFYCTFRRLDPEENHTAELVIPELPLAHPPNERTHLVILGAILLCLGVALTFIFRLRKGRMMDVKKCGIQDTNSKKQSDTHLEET
The target of the next assay is T1, CD226 (human) (UniProt Q15762).
T1 sequence: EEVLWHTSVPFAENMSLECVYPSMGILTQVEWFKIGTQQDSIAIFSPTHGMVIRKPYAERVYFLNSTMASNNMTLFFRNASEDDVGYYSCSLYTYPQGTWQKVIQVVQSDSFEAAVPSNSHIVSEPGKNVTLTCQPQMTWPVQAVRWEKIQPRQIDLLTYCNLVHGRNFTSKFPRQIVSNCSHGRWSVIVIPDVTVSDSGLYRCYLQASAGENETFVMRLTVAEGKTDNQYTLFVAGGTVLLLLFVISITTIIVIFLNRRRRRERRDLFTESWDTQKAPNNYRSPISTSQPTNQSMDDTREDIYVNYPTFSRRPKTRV
In words: flow cytometry, Fc fusion on Expi293 cells transfected with full-length human CD226.

Assay [3] has as its target CD80 (human). In words: flow cytometry, cells expressing CD80, 20 nM.
The target of the next assay is T2, ICOSL (human) (UniProt O75144).
T2 sequence: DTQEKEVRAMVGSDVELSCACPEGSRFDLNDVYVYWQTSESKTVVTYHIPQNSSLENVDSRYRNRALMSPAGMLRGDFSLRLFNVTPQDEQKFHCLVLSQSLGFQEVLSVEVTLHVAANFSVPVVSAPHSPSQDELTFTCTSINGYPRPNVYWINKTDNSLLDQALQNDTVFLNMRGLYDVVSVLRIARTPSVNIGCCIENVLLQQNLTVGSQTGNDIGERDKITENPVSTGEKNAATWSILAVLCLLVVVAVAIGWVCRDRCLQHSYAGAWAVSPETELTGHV
In words: flow cytometry, cells expressing the partner.

Assay [4] addresses CD80 (human) (UniProt P33681). In words: flow cytometry, cells expressing the partner.
The next assay concerns the target CD86 (human) (UniProt P42081). In words: flow cytometry, cells expressing the partner.
For assay [5], the target named is CD28, full-length, expressed on transfected cells (Homo sapiens (Human)) (UniProt P10747). In words: flow cytometry, cells expressing target.
Assay [6] has as its target ICOS (Homo sapiens (Human)) (UniProt Q9Y6W8). In words: flow cytometry, transfected cells.
In assay [7] the target is CTLA-4 (Homo sapiens (Human)) (UniProt P16410). In words: flow cytometry, transfected cells.
Assay [8] deals with CD28 (human) (UniProt P10747). In words: flow cytometry, transfected cells.
In assay [9] the target is CD28 (human) (UniProt P10747). In words: flow cytometry, Jurkat cells (CD28). This is another data set of the same source.
For assay [10], the target named is PD-L1 (human). In words: flow cytometry, CHO cells expressing PD-L1.
The target of another assay is CTLA-4 (human). In words: flow cytometry, cells expressing CTLA-4.
In assay [11] the target is PD-L1 (human). In words: flow cytometry, cells expressing PD-L1.
Assay [12] deals with CD28 (human) (UniProt P10747). In words: flow cytometry, cells expressing CD28.
In another assay the target is T3, human ICOSL (human).
T3 sequence: T2 sequence
In words: flow cytometry, cells expressing human ICOSL.

Sequence of ICOS (Homo sapiens (Human)) (Q9Y6W8 21-199 limits assumed): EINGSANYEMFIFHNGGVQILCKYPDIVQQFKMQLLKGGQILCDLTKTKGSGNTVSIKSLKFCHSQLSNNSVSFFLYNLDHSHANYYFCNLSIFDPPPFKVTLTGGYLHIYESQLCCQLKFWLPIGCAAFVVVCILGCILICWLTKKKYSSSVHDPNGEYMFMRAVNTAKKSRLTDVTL
Sequence of CTLA-4 (Homo sapiens (Human)) (P16410 36-223): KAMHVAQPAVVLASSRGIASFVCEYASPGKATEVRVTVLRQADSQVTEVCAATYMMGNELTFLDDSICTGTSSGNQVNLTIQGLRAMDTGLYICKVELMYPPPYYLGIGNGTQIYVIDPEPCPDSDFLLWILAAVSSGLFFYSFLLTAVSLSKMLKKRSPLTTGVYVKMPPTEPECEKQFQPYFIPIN
Sequence of CTLA4 (human) (chain, as listed by the source): as the sequence (P16410 36-223) above
Sequence of WT CD80 ECD-Fc (R&D) (Fc fusion) (chain): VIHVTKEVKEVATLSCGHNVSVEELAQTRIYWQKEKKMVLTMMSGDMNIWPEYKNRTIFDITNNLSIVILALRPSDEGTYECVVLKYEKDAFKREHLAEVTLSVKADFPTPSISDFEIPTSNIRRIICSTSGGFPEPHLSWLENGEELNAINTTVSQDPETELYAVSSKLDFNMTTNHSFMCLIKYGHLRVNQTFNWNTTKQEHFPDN
Sequence of CD80 (human) (chain, as listed by the source): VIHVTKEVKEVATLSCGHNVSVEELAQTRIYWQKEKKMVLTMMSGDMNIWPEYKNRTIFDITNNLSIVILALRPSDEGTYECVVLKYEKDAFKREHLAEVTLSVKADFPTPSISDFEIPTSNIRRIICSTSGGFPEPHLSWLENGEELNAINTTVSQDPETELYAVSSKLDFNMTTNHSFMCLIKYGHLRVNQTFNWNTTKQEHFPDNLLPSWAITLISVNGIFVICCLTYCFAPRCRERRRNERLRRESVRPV
Sequence of CTLA4-Fc (P16410 37-162 limits assumed): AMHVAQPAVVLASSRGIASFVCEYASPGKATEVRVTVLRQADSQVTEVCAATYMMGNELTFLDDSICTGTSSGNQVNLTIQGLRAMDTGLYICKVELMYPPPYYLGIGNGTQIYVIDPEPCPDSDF

For the substance “CD80 variant A26E/E35D/M43I/M47L/L85Q/K86E/R94W IgV-Fc (Fc fusion)”, the MFI at 33.3 nM with CTLA4 (human) turned out to be 2950 MFI; with CD28 (human) [1], 314 MFI.
Turning to “CD80 variant E24D/Q33L/E35D/M47V/K54R/L85Q IgV-Fc (Fc fusion)”, the MFI at 33.3 nM was found to be 311000 MFI with CTLA4 (human) and 67100 MFI with PD-L1 (human) [2].
As for “CD80 variant E35D/D46V/M47I/A71G/F92V IgV-Fc (Fc fusion)”, the MFI at 33.3 nM in the assay with CD28 (human) [1] amounted to 7540 MFI.
“CD80 variant E35D/M47I/K54R/L85E IgV-Fc (Fc fusion)”: the MFI at 33.3 nM with CTLA4 (human) turned out to be 8660 MFI; with PD-L1 (human) [2], 36900 MFI.
With “CD80 variant E35D/M47L/A71G/L97Q IgV-Fc (Fc fusion)”, the MFI at 33.3 nM in the assay with CTLA4 (human) amounted to 226000 MFI; with CD28 (human) [1], 300 MFI.
With “CD80 variant E35D/M47V/T62A/A71G/V83A/Y87H/L97M IgV-Fc (Fc fusion)”, the MFI at 33.3 nM with CTLA4 (human) was determined as 18100 MFI; in the assay with PD-L1 (human) [2] it was 77500 MFI; in the assay with CD28 (human) [1], 305 MFI.
For “CD80 variant Q27H/E35D/M47L/L85Q/R94Q/E95K IgV-Fc (Fc fusion)”, the results for the MFI at 33.3 nM with PD-L1 (human) [2] and in the assay with CD28 (human) [1] were 36100 MFI and 282 MFI, respectively.
As for “CD80 variant Q33L/E35D/M47V IgV-Fc (Fc fusion)”, the results for the MFI at 33.3 nM with CTLA4 (human) and in the assay with PD-L1 (human) [2] were 47600 MFI and 47900 MFI, respectively.
For “CD80 variant Q33L/E35D/M47V/T79A IgV-Fc (Fc fusion)”, in that order: 28900 MFI and 62100 MFI.
Regarding “CD80 variant Q33R/E35D/D46E/M47I IgV-Fc (Fc fusion)”, the MFI at 33.3 nM with CTLA4 (human) stood at 3560 MFI; in the assay with CD28 (human) [1], 303 MFI.
Regarding “CD80 variant Q33R/E35D/K37E/M47V/L85Q IgV-Fc (Fc fusion)”, the MFI at 33.3 nM with PD-L1 (human) [2] is 44400 MFI; with CD28 (human) [1], 258 MFI.
In the assay with CD28 (human) [1], “CD80 variant S15P/Q33L/E35D/M47L/L85Q IgV-Fc (Fc fusion)” came in with an MFI at 33.3 nM of 266 MFI.
As for CD112 A112V (Fc fusion), the MFI in the assay with CD226 (human) is 152000 MFI.
With “CTLA4-Fc (from UniProt P16410) (Fc fusion)”, the MFI at 20 nM in the assay with CD80 (human) [3] amounted to 200000 MFI.
Consider CTLA-4 ECD-Fc L12P/A26T (Fc fusion), for which the MFI was determined as 928 MFI in the assay with ICOSL (human), 1024 MFI with CD80 (human) [4] and 276000 MFI with CD86 (human). For the same substance, the MFI ratio to WT (ΔWT) with CD86 (human) is 0.4 fold.
As to “CTLA-4 ECD-Fc L12P/A26T/L63P (Fc fusion)”, the MFI is 891 MFI with ICOSL (human), 2400 MFI with CD80 (human) [4] and 500000 MFI with CD86 (human).
With “CTLA-4 ECD-Fc L12P/A26T/L63P/L98Q/Y105L (Fc fusion)”, the MFI with ICOSL (human) was determined as 873 MFI; with CD80 (human) [4], 829 MFI; with CD86 (human), 762000 MFI.
As to CTLA-4 ECD-Fc L63P (Fc fusion), the MFI is 966 MFI with ICOSL (human), 3930 MFI with CD80 (human) [4] and 596000 MFI with CD86 (human).
As for “CTLA-4 ECD-Fc L63P/L98Q/Y105L (Fc fusion)”, the MFI was 1800 MFI in the assay with ICOSL (human), 4720 MFI with CD80 (human) [4] and 411000 MFI with CD86 (human).
Regarding CTLA-4 ECD-Fc L98Q/Y105L (Fc fusion), the MFI with ICOSL (human) was determined as 1190 MFI; in the assay with CD80 (human) [4], 3860 MFI; with CD86 (human), 685000 MFI.
Take CTLA-4 ECD-Fc L98R/N110K (Fc fusion): the MFI came to 2110 MFI with CD80 (human) [4] and 665000 MFI in the assay with CD86 (human).
In turn, “ICOSL ECD-Fc N30D/N52S/L67P/Q100K/D217G/R221K/T225S (Fc fusion)” yielded an MFI in assay [5] of 1990 MFI.
Regarding “ICOSL ECD-Fc N52H/N57Y/Q100R/F172S (Fc fusion)”, the results for the MFI in assay [6] and in [7] were 238000 MFI and 606000 MFI, respectively.
In the case of ICOSL ECD-Fc N52S/E90A (Fc fusion), the MFI in assay [5] was found to be 31100 MFI.
The substance ICOSL ECD-Fc N52S/T113E (Fc fusion) had an MFI in assay [5] of 54 MFI.
ICOSL-Fc N52G/Q100A (Fc fusion): the MFI came to 303000 MFI in [6] and 98700 MFI with CD28 (human) [8].
With ICOSL-Fc N52H/N57Y/Q100K (Fc fusion), the MFI in assay [6] is 214000 MFI; in the assay with CD28 (human) [8], 142000 MFI.
ICOSL-Fc N52H/N57Y/Q100R (Fc fusion): the MFI turned out to be 200000 MFI in [6], 817000 MFI in assay [7] and 142000 MFI with CD28 (human) [8]. Moreover, the values for the MFI ratio to WT (ΔWT) (in [6]; in assay [7]; with CD28 (human) [8]) were 0.94 fold, 2.47 fold and 6.4 fold, respectively.
On to WT CD80 ECD-Fc (R&D) (Fc fusion), for which the MFI at 33.3 nM stood at 18000 MFI in the assay with CD28 (human) [9], 7940 MFI in the assay with PD-L1 (human) [2], 7630 MFI in the assay with CD28 (human) [1] and 11900 MFI in the assay with PD-L1 (human) [10].
Consider variant CD80 A91G (Fc fusion), for which the MFI was 200 MFI in the assay with CTLA-4 (human) and 85 MFI with PD-L1 (human) [11].
For the substance variant CD80 A91G/S103P (Fc fusion), the MFI amounted to 39 MFI with CD28 (human) [12] and 9 MFI with PD-L1 (human) [11].
For “variant CD80 E24G/L25P/L70Q/A91G/I118V/T120S/N152T (Fc fusion)”, the MFI stood at 38 MFI in the assay with CTLA-4 (human) and 26 MFI in the assay with CD28 (human) [12].
For the substance “variant CD80 I67T/L70Q/A91G/I118V/T120S (Fc fusion)”, the MFI with CTLA-4 (human) worked out at 160 MFI; with CD28 (human) [12], 98 MFI; in the assay with PD-L1 (human) [11], 5 MFI. Further, the parental ratio with CTLA-4 (human) was found to be 0.77; in the assay with CD28 (human) [12] it was 1.03; with PD-L1 (human) [11], 0.08.
As to variant CD80 K89E/T130A (Fc fusion), in the assay with CTLA-4 (human), the MFI is 148 MFI.
For “variant CD80 L65H/D90G/T110A/F116L (Fc fusion)”, the values for the MFI with CTLA-4 (human) and in the assay with CD28 (human) [12] were 121 MFI and 33 MFI, respectively.
“variant CD80 M38T/L70Q/E77G/A91G/I118V/T120S/T130A/N152T (Fc fusion)” came in with an MFI with CD28 (human) [12] of 61 MFI.
On the same count and under the same terms, to “variant CD80 M38V/T41D/M43I/W50G/D76G/V83A/K89E/I118V/T120S/I126V/T130A (Fc fusion)” belongs 5 MFI.
Regarding “variant CD80 R29H/E52G/D90N/I118V/T120S/T130A (Fc fusion)”, the MFI with CTLA-4 (human) amounted to 141 MFI; with CD28 (human) [12] it was 66 MFI.
In the case of “variant CD80 R29H/E52G/L70R/E88G/A91G/T130A (Fc fusion)”, the MFI with CTLA-4 (human) is 119 MFI; with CD28 (human) [12] it was 100 MFI; in the assay with PD-L1 (human) [11], 5 MFI. In addition, the parental ratio came out at 0.57 with CTLA-4 (human) and 0.08 with PD-L1 (human) [11].
“variant CD80 T28S/L70Q/A91G/E95K/I118V/T120S/I126V/T130A/K169E (Fc fusion)”: the MFI with CTLA-4 (human) is 65 MFI; in the assay with CD28 (human) [12] it was 32 MFI; with PD-L1 (human) [11], 6 MFI. The values for the parental ratio with CTLA-4 (human), with CD28 (human) [12] and in the assay with PD-L1 (human) [11] were 0.31, 0.34 and 0.08, respectively.
With “variant CD80 V20L/L70Q/A91S/I118V/T120S/T130A (Fc fusion)”, the figures for the MFI with CTLA-4 (human), in the assay with CD28 (human) [12] and with PD-L1 (human) [11] were 200 MFI, 105 MFI and 9 MFI, respectively. Further, the parental ratio with CTLA-4 (human) came out at 0.96; in the assay with PD-L1 (human) [11] it was 0.13.
As for “variant CTLA-4 ECD-Fc G29W/L98Q/Y105L (Fc fusion)”, in the assay with human ICOSL (human), the MFI is 570 MFI.
On the same count and under the same terms, to “variant CTLA-4 ECD-Fc G29W/M56T/L98Q/Y105L (Fc fusion)” belongs 612 MFI; to “variant CTLA-4 ECD-Fc G29W/M56T/S72G/L98Q/Y105L (Fc fusion)”, 534 MFI.
Same read-out and setting: to “variant CTLA-4 ECD-Fc L12F/R16H/G29W/L98Q/Y105L (Fc fusion)” belongs 862 MFI; to “variant CTLA-4 ECD-Fc L12F/R16H/G29W/M56T/S72G/L98Q/Y105L (Fc fusion)”, 613 MFI.
In the case of “variant CTLA-4 ECD-Fc M56T/L98Q/Y105L (Fc fusion)”, in the assay with human ICOSL (human), the MFI amounted to 700 MFI.
For variant PD-L1 G15A/V129D Fc fusion, the MFI at 20 nM with CD80 (human) [3] worked out at 128 MFI.
On the same count and under the same terms, for variant PD-L1 V93E/V129D Fc fusion the value was 150 MFI.
